Laboratory results reported in article PMC6359379, “SLC35A5 Protein—A Golgi Complex Member with Putative Nucleotide Sugar Transport Activity” (International Journal of Molecular Sciences, 2019).

B1: CMP-sialic acid transporter (SLC35A1), mRFP fusion (natural protein, UniProt P78382 1-337, looked up)
chain: MAAPRDNVTLLFKLYCLAVMTLMAAVYTIALRYTRTSDKELYFSTTAVCITEVIKLLLSVGILAKETGSLGRFKASLRENVLGSPKELLKLSVPSLVYAVQNNMAFLALSNLDAAVYQVTYQLKIPCTALCTVLMLNRTLSKLQWVSVFMLCAGVTLVQWKPAQATKVVVEQNPLLGFGAIAIAVLCSGFAGVYFEKVLKSSDTSLWVRNIQMYLSGIIVTLAGVYLSDGAEIKEKGFFYGYTYYVWFVIFLASVGGLYTSVVVKYTDNIMKGFSAAAAIVLSTIASVMLFGLQITLTFALGTLLVCVSIYLYGLPRQDTTSIQQGETASKERVIGV
notes: SLC35A1, CMP-sialic acid transporter; expressed from a pTag-RFP-C-SLC35A construct; FRET acceptor; The legend writes 'mRFP/SLC35A proteins'; also called mRFP/SLC35A1; source: HEK293T, transiently transfected, in living cells
B2: UDP-galactose transporter (SLC35A2), Golgi splice variant, mRFP fusion (natural protein, UniProt P78381-2 1-393, looked up)
chain: MAAVGAGGSTAAPGPGAVSAGALEPGTASAAHRRLKYISLAVLVVQNASLILSIRYARTLPGDRFFATTAVVMAEVLKGLTCLLLLFAQKRGNVKHLVLFLHEAVLVQYVDTLKLAVPSLIYTLQNNLQYVAISNLPAATFQVTYQLKILTTALFSVLMLNRSLSRLQWASLLLLFTGVAIVQAQQAGGGGPRPLDQNPGAGLAAVVASCLSSGFAGVYFEKILKGSSGSVWLRNLQLGLFGTALGLVGLWWAEGTAVATRGFFFGYTPAVWGVVLNQAFGGLLVAVVVKYADNILKGFATSLSIVLSTVASIRLFGFHVDPLFALGAGLVIGAVYLYSLPRGAAKAIASASASASGPCVHQQPPGQPPPPQLSSHRGDLITEPFLPKSVLVK
notes: expressed from a pTag-RFP-C-SLC35A construct; FRET acceptor; also called first splice variant of SLC35A2; source: HEK293T, transiently transfected, in living cells
B3: UDP-N-acetylglucosamine transporter (SLC35A3), mRFP fusion (natural protein, UniProt Q9Y2D2 1-325, looked up)
chain: MFANLKYVSLGILVFQTTSLVLTMRYSRTLKEEGPRYLSSTAVVVAELLKIMACILLVYKDSKCSLRALNRVLHDEILNKPMETLKLAIPSGIYTLQNNLLYVALSNLDAATYQVTYQLKILTTALFSVSMLSKKLGVYQWLSLVILMTGVAFVQWPSDSQLDSKELSAGSQFVGLMAVLTACFSSGFAGVYFEKILKETKQSVWIRNIQLGFFGSIFGLMGVYIYDGELVSKNGFFQGYNRLTWIVVVLQALGGLVIAAVIKYADNILKGFATSLSIILSTLISYFWLQDFVPTSVFFLGAILVITATFLYGYDPKPAGNPTKA
notes: SLC35A3, UDP-N-acetylglucosamine transporter; expressed from a pTag-RFP-C-SLC35A construct; FRET acceptor; source: HEK293T, transiently transfected, in living cells
B4: SLC35A4, mRFP fusion (natural protein, UniProt Q96G79 1-324, looked up)
chain: MSVEDGGMPGLGRPRQARWTLMLLLSTAMYGAHAPLLALCHVDGRVPFRPSSAVLLTELTKLLLCAFSLLVGWQAWPQGPPPWRQAAPFALSALLYGANNNLVIYLQRYMDPSTYQVLSNLKIGSTAVLYCLCLRHRLSVRQGLALLLLMAAGACYAAGGLQVPGNTLPSPPPAAAASPMPLHITPLGLLLLILYCLISGLSSVYTELLMKRQRLPLALQNLFLYTFGVLLNLGLHAGGGSGPGLLEGFSGWAALVVLSQALNGLLMSAVMKHGSSITRLFVVSCSLVVNAVLSAVLLRLQLTAAFFLATLLIGLAMRLYYGSR
notes: SLC35A4, member of the SLC35A subfamily; expressed from a pTag-RFP-C-SLC35A construct; FRET acceptor; source: HEK293T, transiently transfected, in living cells
B5: Solute carrier family 35 member A5 (SLC35A5), eGFP fusion (natural protein, human, UniProt Q9BS91 1-424, looked up)
chain: MEKQCCSHPVICSLSTMYTFLLGAIFIALSSSRILLVKYSANEENKYDYLPTTVNVCSELVKLVFCVLVSFCVIKKDHQSRNLKYASWKEFSDFMKWSIPAFLYFLDNLIVFYVLSYLQPAMAVIFSNFSIITTALLFRIVLKRRLNWIQWASLLTLFLSIVALTAGTKTLQHNLAGRGFHHDAFFSPSNSCLLFRSECPRKDNCTAKEWTFPEAKWNTTARVFSHIRLGMGHVLIIVQCFISSMANIYNEKILKEGNQLTESIFIQNSKLYFFGILFNGLTLGLQRSNRDQIKNCGFFYGHSAFSVALIFVTAFQGLSVAFILKFLDNMFHVLMAQVTTVIITTVSVLVFDFRPSLEFFLEAPSVLLSIFIYNASKPQVPEYAPRQERIRDLSGNLWERSSGDGEELERLTKPKSDESDEDTF
notes: SLC35A5, putative nucleotide sugar transporter; expressed from the plasmid pTag-GFP2-C-A5; FRET donor in every pair; In the pair A5 + A5 the second copy carried mRFP (pTag-RFP-C-SLC35A construct) in place of eGFP; also called pTag-GFP2-C-A5; source: HEK293T, transiently transfected, in living cells
B6: UDP-galactose transporter (SLC35A2), ER splice variant, mRFP fusion (natural protein, UniProt P78381-1 1-396, looked up)
chain: MAAVGAGGSTAAPGPGAVSAGALEPGTASAAHRRLKYISLAVLVVQNASLILSIRYARTLPGDRFFATTAVVMAEVLKGLTCLLLLFAQKRGNVKHLVLFLHEAVLVQYVDTLKLAVPSLIYTLQNNLQYVAISNLPAATFQVTYQLKILTTALFSVLMLNRSLSRLQWASLLLLFTGVAIVQAQQAGGGGPRPLDQNPGAGLAAVVASCLSSGFAGVYFEKILKGSSGSVWLRNLQLGLFGTALGLVGLWWAEGTAVATRGFFFGYTPAVWGVVLNQAFGGLLVAVVVKYADNILKGFATSLSIVLSTVASIRLFGFHVDPLFALGAGLVIGAVYLYSLPRGAAKAIASASASASGPCVHQQPPGQPPPPQLSSHRGDLITEPFLPKLLTKVKGS
notes: SLC35A2, UDP-galactose transporter, the second splice variant, localised mainly to the ER (A2-ER); expressed from a pTag-RFP-C-SLC35A construct; FRET acceptor; also called second splice variant of SLC35A2; source: HEK293T, transiently transfected, in living cells

Columns and labels:
[1] = biological target: B5; assay: FRET or BRET; FLIM/FRET in living HEK293T cells transiently co-transfected, analysed 48 h after transfection in FluoroBrite DMEM; SLC35A5-eGFP as donor, mRFP-tagged SLC35A proteins as acceptors; eGFP lifetime of the donor alone 2.70 ns; settings: partners not purified
[2] = biological target: the molecule itself; assay: as above

With B1 the “eGFP fluorescence lifetime of the donor with the acceptor (donor alone 2.70 ns)” value (“eGFP fluorescence lifetime of the donor” for short) [1] was 2.29 ns.

With B2 the “eGFP fluorescence lifetime of the donor” value [1] was 2.24 ns.

For B3, the “eGFP fluorescence lifetime of the donor” value [1] was 2.35 ns.

With B4 the “eGFP fluorescence lifetime of the donor” value [1] was 2.39 ns.

For B5, the “eGFP fluorescence lifetime of the donor” value [2] was 2.51 ns.

B6 was tested, and the “eGFP fluorescence lifetime of the donor” value [1] was 2.31 ns.
